Literature values, collected in patent publication US9453050B2, “Compositions for treating glioma” (GLIA SP Z.O.O., priority 2011, dated 2016).

Experiments:
[1] = target: T1, high affinity receptor (GM-CSFRα.βc complex) (Homo sapiens, UniProt P15509+P32927); conditions: VonFeldt et al.; cited from earlier work
T1 sequence (P15509 23-400): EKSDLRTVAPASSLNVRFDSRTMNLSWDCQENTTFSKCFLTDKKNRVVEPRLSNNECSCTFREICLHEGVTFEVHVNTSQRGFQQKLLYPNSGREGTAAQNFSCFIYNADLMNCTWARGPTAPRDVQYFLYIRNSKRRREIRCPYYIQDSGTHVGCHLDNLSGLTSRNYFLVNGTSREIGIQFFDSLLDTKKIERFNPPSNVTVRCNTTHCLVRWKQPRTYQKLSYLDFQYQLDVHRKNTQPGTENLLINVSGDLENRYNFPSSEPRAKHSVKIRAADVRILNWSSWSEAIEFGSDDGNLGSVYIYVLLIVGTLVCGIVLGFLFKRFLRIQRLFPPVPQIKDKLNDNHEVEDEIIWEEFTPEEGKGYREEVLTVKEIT
T1 sequence (P32927 17-897): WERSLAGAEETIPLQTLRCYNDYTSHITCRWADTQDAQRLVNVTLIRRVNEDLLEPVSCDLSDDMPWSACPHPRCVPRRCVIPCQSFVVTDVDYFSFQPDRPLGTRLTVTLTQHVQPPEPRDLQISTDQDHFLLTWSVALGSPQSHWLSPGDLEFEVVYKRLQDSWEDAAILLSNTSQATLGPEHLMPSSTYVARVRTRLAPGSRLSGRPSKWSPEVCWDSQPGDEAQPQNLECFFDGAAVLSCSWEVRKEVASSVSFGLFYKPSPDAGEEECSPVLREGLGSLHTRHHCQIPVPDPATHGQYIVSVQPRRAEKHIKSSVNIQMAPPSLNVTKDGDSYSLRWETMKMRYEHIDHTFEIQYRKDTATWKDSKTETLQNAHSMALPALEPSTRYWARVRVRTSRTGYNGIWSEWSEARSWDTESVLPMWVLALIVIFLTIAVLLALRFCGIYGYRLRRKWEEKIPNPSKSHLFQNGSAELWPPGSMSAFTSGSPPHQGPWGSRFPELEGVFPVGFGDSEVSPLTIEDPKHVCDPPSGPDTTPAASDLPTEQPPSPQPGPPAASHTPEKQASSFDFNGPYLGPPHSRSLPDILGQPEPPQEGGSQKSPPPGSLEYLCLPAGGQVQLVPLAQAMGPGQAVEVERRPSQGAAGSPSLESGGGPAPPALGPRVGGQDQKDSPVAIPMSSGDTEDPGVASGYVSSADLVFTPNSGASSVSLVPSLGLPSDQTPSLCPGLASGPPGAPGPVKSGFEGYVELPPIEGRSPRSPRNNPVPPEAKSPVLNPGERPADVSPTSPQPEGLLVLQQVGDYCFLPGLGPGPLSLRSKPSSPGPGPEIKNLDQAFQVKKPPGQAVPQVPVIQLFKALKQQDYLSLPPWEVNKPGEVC

[2] = target: T2, low affinity receptor (GM-CSFRα alone) (Homo sapiens, UniProt P15509); conditions: VonFeldt et al.; cited from earlier work
T2 sequence (P15509 23-400): T1 sequence (P15509 23-400)

Substance	high affinity receptor binding [1]	low affinity receptor binding [2]
amino acids 17-31 (the A helix) of GM-CSF: linear peptide analog of GM-CSF, VonFeldt et al. (NAIQEARRLLNLSRD; UniProt P04141 34-48, looked up, fragment)	inhibits	
peptide consisting of amino acids 54-78 (B and C helices): linear peptide analog of GM-CSF, VonFeldt et al. (CLQTRLELYKQGLRGSLTKLKGPLT; UniProt P04141 71-95, looked up, fragment)		inhibits
